Earlier results in publication PMC4961565.

Target: Asp309 (UniProt position 309, LIAAPDTMSVS)
Assay: other

Cytochrome P450 19A1 (aromatase) (Homo sapiens)
pKa: 8.2
